# Measurements reported in patent US20230183291A1, “ANTI-INFECTIVE BICYCLIC PEPTIDE LIGANDS” (priority 2020, published 2023).
# Numbered stars: 1 amine (or outer) side, 2 acyl side, 3 side chain; on linkers, the order of the positions; unused ones are H or OH. Bridge positions count the residues as written; N and C are the ends. Square brackets hold non-standard residues; d marks the D form. Primed or numbered codes have the meaning given here. Ends that are not written are not given here. Arg(Me)′ = delta-N-methyl arginine, CN(CCC[C@H](N[*:1])C(=O)[*:2])C(=N)N; TATA = O=C(CC[*:1])N1CN(C(=O)CC[*:2])CN(C(=O)CC[*:3])C1; 1Nal = N[C@@H](Cc1cccc2ccccc12)C(=O)O; 2Nal = N[C@@H](Cc1ccc2ccccc2c1)C(=O)O; hArg = N=C(N)NCCCC[C@H](N)C(=O)O; Aib = CC(C)(N)C(=O)O; Sar = CNCC(=O)O
# How the values were obtained:
# [1] = molecular target: Biotinylated Human ACE2, His, Avitag protein (ACROBiosystems, AC2-H82E6) (human), Q9BYF1; assay: SPR single cycle kinetics, ACE2 captured on CAP chip, peptide analyte; geometric mean
# Sequence of Biotinylated Human ACE2, His, Avitag protein (ACROBiosystems, AC2-H82E6) (human), Q9BYF1 (Q9BYF1 18-740 limits assumed): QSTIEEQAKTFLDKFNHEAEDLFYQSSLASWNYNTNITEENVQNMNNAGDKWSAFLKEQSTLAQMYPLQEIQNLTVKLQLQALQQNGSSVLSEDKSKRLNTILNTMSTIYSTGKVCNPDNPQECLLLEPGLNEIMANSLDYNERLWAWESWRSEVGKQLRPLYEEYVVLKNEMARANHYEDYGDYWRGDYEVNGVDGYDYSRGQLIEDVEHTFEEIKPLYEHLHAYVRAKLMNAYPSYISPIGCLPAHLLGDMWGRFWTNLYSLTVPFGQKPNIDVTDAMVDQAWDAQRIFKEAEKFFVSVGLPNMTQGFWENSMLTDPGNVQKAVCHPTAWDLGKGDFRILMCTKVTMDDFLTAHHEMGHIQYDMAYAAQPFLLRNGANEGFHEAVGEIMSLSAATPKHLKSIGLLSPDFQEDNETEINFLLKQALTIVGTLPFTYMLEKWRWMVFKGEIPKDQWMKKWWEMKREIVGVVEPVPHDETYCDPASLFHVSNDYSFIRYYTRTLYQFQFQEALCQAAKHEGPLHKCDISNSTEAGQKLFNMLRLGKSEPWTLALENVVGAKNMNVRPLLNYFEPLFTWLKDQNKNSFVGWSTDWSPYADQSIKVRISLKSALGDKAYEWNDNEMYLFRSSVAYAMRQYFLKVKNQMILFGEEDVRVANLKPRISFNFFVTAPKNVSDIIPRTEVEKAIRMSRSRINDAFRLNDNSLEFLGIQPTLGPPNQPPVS
# [2] = molecular target: ACE2 protein (Homo sapiens (Human)), Q9BYF1; assay: fluorescence polarisation direct binding, 1 nM fluorescein tracer, ACE2 titrated
# Sequence of ACE2 protein (Homo sapiens (Human)), Q9BYF1 (Q9BYF1 18-740 limits assumed): as above
Kd [1],Kd [2],Binder
7.7 nM,5.8 nM,ACAN[Aib]VLCSWARANSFCA[Sar][Sar][Sar][Sar][Sar][Sar]K(fluorescein) (linker 2-8-17 via TATA) [BCY16871]
,130 nM,ACLEVYKCWRGKCA[Sar][Sar][Sar][Sar][Sar][Sar]K(fluorescein) (linker 2-8-13 via TATA) [BCY15422]
,20.4 nM,ACAPILCRWAERQGYCA[Sar][Sar][Sar][Sar][Sar][Sar]K(fluorescein) (linker 2-7-16 via TATA) [BCY15419]
3.4 nM,5.53 nM,ACNAVLCSWARANSFCA[Sar][Sar][Sar][Sar][Sar][Sar]K(fluorescein) (linker 2-7-16 via TATA) [BCY15423]
,134 nM,ACPSQYKCWRGKCA[Sar][Sar][Sar][Sar][Sar][Sar]K(fluorescein) (linker 2-8-13 via TATA) [BCY15421]
4.1 nM,62 nM,ACNAVLCSWA[hArg]ANSFCA[Sar][Sar][Sar][Sar][Sar][Sar]K(fluorescein) (linker 2-7-16 via TATA) [BCY16874]
,21.9 nM,ACVRSHCSSLLPRIHCA[Sar][Sar][Sar][Sar][Sar][Sar]K(fluorescein) (linker 2-7-16 via TATA) [BCY15283]
,157 nM,ACTRPWCHSLLPRATCA[Sar][Sar][Sar][Sar][Sar][Sar]K(fluorescein) (linker 2-7-16 via TATA) [BCY15285]
,98.3 nM,ACLELYQCWRGKCA[Sar][Sar][Sar][Sar][Sar][Sar]K(fluorescein) (linker 2-8-13 via TATA) [BCY15420]
8.9 nM,2.9 nM,ACNAVLCSW[Aib]RANSFCA[Sar][Sar][Sar][Sar][Sar][Sar]K(fluorescein) (linker 2-7-16 via TATA) [BCY16872]
,225 nM,ACHKFPCRDPQQYLFCA[Sar][Sar][Sar][Sar][Sar][Sar]K(fluorescein) (linker 2-7-16 via TATA) [BCY15288]
3.5 nM,,ACNAVLCSWA[Arg(Me)′]ANSFCA[Sar][Sar][Sar][Sar][Sar][Sar]K(fluorescein) (linker 2-7-16 via TATA) [BCY16863]
2.1 nM,2.6 nM,ACNAVLCS[1Nal]ARANSFCA[Sar][Sar][Sar][Sar][Sar][Sar]K(fluorescein) (linker 2-7-16 via TATA) [BCY16866]
,65.5 nM,ACGRQFCHTLMPRHLCA[Sar][Sar][Sar][Sar][Sar][Sar]K(fluorescein) (linker 2-7-16 via TATA) [BCY15284]
,50.7 nM,ACNAVLCS[2Nal]ARANSFCA[Sar][Sar][Sar][Sar][Sar][Sar]K(fluorescein) (linker 2-7-16 via TATA) [BCY16867]
